Source: US20120283182A1
Each block holds one molecule with its values, some of them ahead of it. Ends that are not written are not given here.

How the values were obtained:
[1] = system: adult rat cardiac ventricular F1Fo ATPase holo-enzyme
[2] = target: 'd' subunit of F1Fo ATP synthase (dF1Fo) (rat) (UniProt P31399); assay: co-IP with anti-dF1Fo antisera from NCM mitochondria; Western blot densitometry
[3] = target: 'd' subunit of F1Fo ATP synthase (dF1Fo) (rat) (UniProt P31399); assay: cell-based or functional assay
[4] = target: delta protein kinase C (δPKC) (rat) (UniProt P09215); assay: PKC overlay assay: inhibition of δPKC binding to blotted dF1Fo by the peptide; densitometry
[5] = target: delta protein kinase C (δPKC) (rat) (UniProt P09215); assay: PKC overlay assay: facilitation of δPKC binding to blotted dF1Fo by the peptide; densitometry

Chain of 'd' subunit of F1Fo ATP synthase (dF1Fo) (rat) (P31399 2-161 limits assumed): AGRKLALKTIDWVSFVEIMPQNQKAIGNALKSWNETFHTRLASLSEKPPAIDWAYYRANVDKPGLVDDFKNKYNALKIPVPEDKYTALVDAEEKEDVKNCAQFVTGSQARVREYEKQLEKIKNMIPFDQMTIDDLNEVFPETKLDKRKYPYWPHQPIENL

Molecule: recombinant δPKC purified from sf9 cells
oligomycin-sensitive F1Fo ATPase activity, in vitro [1]: recombinant δPKC profoundly inhibited F1Fo ATPase activity in the presence or absence of the PKC activators DG and PS

fold increase of δPKC-dF1Fo co-IP over 3 nM 4-β PMA-induced levels [2]: 3.4 fold
further inhibition of F1Fo ATPase activity in NCM mitochondria (high glucose plus hypoxia) [3]: 28%
further inhibition of F1Fo ATPase activity in NCMs (high glucose plus hypoxia) [3]: 29%
inhibition of F1Fo ATPase activity in NCM mitochondria (high glucose) [3]: 56.1%
inhibition of F1Fo ATPase activity in NCM mitochondria (hypoxia) [3]: 10 fold
inhibition of F1Fo ATPase activity in NCMs (high glucose) [3]: 54%
inhibition of F1Fo ATPase activity in rat heart mitochondria (ischemia/reperfusion) [3]: 2.2 fold
inhibition of baseline F1Fo ATPase activity in NCMs (4 hr hypoxia) [3]: 75.1%
Molecule: delta protein kinase C (δPKC) (from UniProt P09215 1-673) (enzyme)

IC50 [4]: 300 µM
B1: δPKC-dF1Fo inhibitor peptide … (peptide)
peptide: AGRKLALKTIDWVSF
modifications: not fully specified

EC50 [5]: 300 µM
B2: δPKC-dF1Fo facilitator peptide … (peptide)
peptide: RVREYEKQLEKIKNMI
